# Laboratory results taken from the DeepSol protein solubility set.
# Test: soluble on expression in E. coli; label from the status in PepcDB or PDB records
row,Sequence,soluble on expression in E. coli
1,MNGTLDHPDQPDLDAIKMFVGQVPRTWSEKDLRELFEQYGAVYEINVLRDRSQNPPQSKGCCFVTFYTRKAALEAQNALHNMKVLPGMHHPIQMKPADSEKNNAVEDRKLFIGMISKKCTENDIRVMFSSFGQIEECRILRGPDGLSRGCAFVTFTTRAMAQTAIKAMHQAQTMEGCSSPMVVKFADTQKDKEQKRMAQQLQQQMQQISAASVWGNLAGLNTLGPQYLALLQQTASSGNLNTLSSLHPMGGLNAMQLQNLAALAAAASAAQNTPSGTNALTTSSSPLSVLTSSGSSPSSSSSNSVNPIASLGALQTLAGATAGLNVGSLAGMAALNGGLGSSGLSNGTGSTMEALTQAYSGIQQYAAAALPTLYNQNLLTQQSIGAAGSQKEGPEGANLFIYHLPQEFGDQDLLQMFMPFGNVVSAKVFIDKQTNLSKCFGFVSYDNPVSAQAAIQSMNGFQIGMKRLKVQLKRSKNDSKPY,soluble
2,MNHLKEVYIDIRDEIFDALDAASLVDVEPLELESQLKDSVNILIEKKQLQISSLKRLDLVKALLDELKGLGPLQALVDNDDISDIMINGPSDIFIEINGKVEKSPIQFVNEKQLNTIAKRIASNVGRRIDESKPLCDARLEDGSR,not soluble
3,MNIEALERLRGWMRAKGFSRFYVVRPENFAWLVGGANTLGMGESVAYLEVGEEVVLHTSAIEHPRMVEEEAPGLPARVHPWYAFPPPPGPNDLEHDLTPLRLVLSREAQGAFTHLGREAAMAVGEVVRSARPEWTEYALAGALAEALWGRGLRPLLLLVAVDERLFRYRHPLPKGKPLGRAFMAVVCAERRGLVANLTRMASFGHGEVEARYRKVLEVEAAALSASRPGATLGEVFAALQGAYARVGFPRAWGEHHQGGVGGYRSREVVATPGHPLVLEAGMVLAWNPSLSGAKVEDTFLLTEGGLLNLTEDPFWPAVEVEGRRRPDLWRGGG,soluble
4,MNIFNNVKKAEIHVHLEATITPSICKKFADRNNHEIPDDFFGSKYAYEWDDFYDFLKKYDIVTSVIHTPEDYYELTYEYLKECAANNVIYMEAMISSTHAKNKGMTYHSFIEGVYEASKKAEEDFGIVARYIMNGIRHLGPESVQNTAEEVLKNPHPCLVGFGLAGDELHFPPNLFVKTFDMLKEANFPITVHAGEWDGPENIRNAINLLHPTRLGHGVRSIEDPELVKEIIDKDIILETCPTSNIATKIYEDYESHPVKTLFNQGVKVTVNSDDPPFFMQLFQ,soluble
5,MNIIWQLGTCNIRQVLAEVPEPKPPYTTLASVFKNLERKHYIKPFREGKTYHYRICISREEYATRTMHRMVDNYFTGSYKHLVQFFAAGSDISVKDLREVIDMIEKGEESE,not soluble
6,MNIKLSFISIAFLSLSFNVAANEFEKSQEHYKSVTDLKNKIEILELEKKITELSGEIRNARMPKIDKSAPVLSPQPVVKSSEELQKSIEHIEEELKVELAYLVNNGQQKKYTFNLNGKLITLVNGDFVNGWKFIEDQNKIQFSKGNKVIDVN,not soluble
7,MNIKRITTEADLHEALKIRRGVFIEEQHVSEADEFDEFDTLQEQCQHILVYHENQPVGTGRARIVGHTAKLERICILKPYRKYGLGKIIVSGLEEIMKEKGLTSYKLHGQTQAAGFYQKLGYQISSQEFMEDGIPHVLMTKEISRNITLEHHHHHH,not soluble
8,MNIPKVQFNPKVHKNIGIEIIELSDIYKRSDDDLENFIAKPHRIKFHNILYITQGRGTHFIDFNTYTTQAGSVVFINKNQVHAFDLINQPQGKLIIFTDEYLDTILTTIKTPLSAHNYLLTSYSPTFSLSKKIRNTCDVLLTEIEKEYQVKDPNLNFLNLIFSAVLTKLSSERTRSFEQYLSESRTEKFMTFIELLEVNYTNTRDAKIYADMLHMTYKSLNQICKLATKQTTKQLIDAYIILEAKRKLSIENIRVQQLADELGFDEVTNFVKYFKKNTLLTPSQFKKLNQG,not soluble
9,MNIQEKFKAIRKQRKLSLRDLANVAGSTSSISDFEKGKTNLSNDVLLQLLGFMVVEINEIFEWSAFQDAEFLELMTQVENALQTQDITVLIQKRETLQEFFVAKNHYIYHIISLVLDVIISKLQEKEPTPEIISELTDYFFSLDYWTNLDVGLLGNIVHHFTTETLVLFTDSILKNTPNQLRNNLDRIKIDTVINCLSVLLARREKNASQELLQLLSRKQFPTYFTYEKLCISEFKAIYMYIWCDKEEADNIHQTILKTVSLLFTKDEANKWDDYFKEIISSADIKK,not soluble
10,MNITKIISKTFDSRLKQIDLYASQASEIQHRVLSRLVNQAAQTEWGKKYDYASIRSYEDFRNRLPIQTYEEIKPYVERLRAGEQNLLWPSEIRWFAKSSGTTNDKSKFLPVSKEALEDIHYRGGKDAAALYFRINPDSHFFSGKGLILGGSHSPNLNSNHSLVGDLSAILIQNVNPLINFIRVPSKKIALMSEWETKIEAIANSTIPVNVTSLSGVPSWMLVLIKRILEKTGKQTLEEVWPNLEVFFHGGVAFTPYREQYKQVIHSKMMHYVETYNASEGYFGTQNDLSDPAMLLMIDYGIFYEFVPLEEVDKENPRAYCLEEVELNKNYAMVISTSCGLWRYMIGDTVKFTNKNPYKFVITGRTKHFINAFGEELIVDNAEKGLAKACAETGAQVCEYSAAPVFMDEHAKCRHQWLIEFAKMPDSVEKFAAILDATLKEVNSDYEAKRWKDIALQPLEVIVARPGLFHDWLARKGKLGGQHKVPRLSNTREYIESMLVLNNELEHHHHHH,not soluble
11,MNKEAFERLPQEKKKIIETAYFSAVRKEISASQFFGVCKEALSKDQFESLFSSSTAGREQQEEMKTEHLQDIIQYSGVDLKEEAEHIVRETETNINFGEYEEEDVNNHIGSLMNVPLFREFVSRIGNSRRVGISEESFFLLFQVAKRKMLDIVEKMEESSKWRVEYNLSEFIIRIKNDLSRQLWCLEQIEKAEIEKFTIRRGEEEGRKKVKKTIQEREDLVIKKRLSNTVALAALGIQQKSWMSAEDVRVSEESTAFNSIYSPFDEKALERKVVNRTITMKDFLYVLERDRRYSKSVFTIQHYFRRGSA,not soluble
12,MNKEMTLLPPPELVQYVGGDFKKVGKEFLKHFIQIGALKSNEKVLDVGCGVGRMAVPLMNYLNDDGAYYGFDLFKDGITWCQNNISTMRNNFHFEHVDIYNQFYNPEGKEDASQYRFPYEDGTFDFIFLTSVFTHLLPKELEHYVSEIVRVLKKDGRCFITFFLINPESSYYLNAGQSTLGFYHRIENCYVVNKDIPNFAVAYPETDICNLLNKYGLEIINKPHYGLWCGRHEYTSYQDIVLTKKSLEHHHHHH,not soluble
13,MNKKSVGQPPEGLHETKSLASALPEKNAEQRPKYVQIVALPSEIKSRELPIAPDNVVYFNGPTHYLSALYPCTVVVDGNEYNSVEHYYQACKLYVLTGEQSAAQLKASETPIEVKKATKNILKEAKIPAKKISAWKDKDSIAVLKHVIYHKFNQNDELKVKLLDTGDKILIQTYIGDTYFAAGANAKYTSTWVDRHVNQSLKYPENVVVDNVQYLPLVANGKNVLGWILMQVRDELRMRSSA,soluble
14,MNKLSRTDEENRQTEFSSSPLSDSVHSCLGFNRKKERKRRTSGDIEQTDKRKRTEERPSDKITFASNVFDNLARVTAERDNPEKLSKYKNIPGVGTRENIDEGISDINQPSSKSSGVKSKYVEVMSLFQKSIQKFSIMNLDYMYTFDWNHYSKKNIQYVVFTKVCQSHAPGHFVEMLKEDCSCRDCGSADLAVKVRLTVPLDLSDIPIPCSEDIQIHVSFLADDLLERHISSNVNRSSNRDDLDFSRRTCEKMYDLYQKMMRGQSSRMYTEWFDKCKIFVKNFLFSKSLHLYHGNVIRRKIEESQTLNKRRCFIFAQIFDLE,not soluble
15,MNKLYIDSFVEKKLTAGVQLLDEKDFSNIKEKNQLVQLVTKSNRPIGTAYISKQNKGIGWYLGPEKIDLSISYFVSLFSVAKAKRQDFAQSDETNAYRLFNQEGDGFGGVTIDLYKDFAVFSWYNAFVYDKKEMIMEAFQQVFPEVKGAYEKCRFKGPDTETAHLYGELAQETFSILENGIAYQVFLNEGLMTGIFLDQHDVRRALVDGLAMGKSLLNLFSYTAAFSVAAAMGGAIETTSVDLAKRSRELSLAHFEHNQLNLASHHFVVMDVFEYFKYAKRKKLIFDVIVIDPPSFARNKKQTFSVSRDYHKLITEALDILSPKGTIIASTNAANMTVSQFKKQIIKGFGSRRPESMTLQQLPSDFTINKADERSNYLKVFTIKVRE,not soluble
16,MNKMLYGWLLAACCGLPPAFAGDSVDVLAQPALHGPQALRAVLQDVARADARLVAVGERGVVLLSDDNGATWRQATAVPVGVSLTAVQFIDARNGWAVGHAGVVLHSQDGGEHWSVQLDGKRAAALEVQAAEAAADERRLAAAQRLLADGADKPLLALNFTDARNGLVVGAYGVAMRTDDGGRSWQSEIGRLPNGRGLHLYALARQGNQVYIAGEQGLLLRSRDGGEHYEALHGPYDGSYFAATVLPDGRLLLGGLRGSLFASDDGGDSFQALANPTPASINGLRVAGGQLLLANQAGMLLRSGLGAFAAQPVAVSDGLPLTAATTAADGSIVAVGMAGARRLEPSSLEHHHHHH,not soluble
17,MNKNGFSRCADIYIGRLREEGRYSTAHVYQNALLSFSKFCGVHSVSFRQVTRERLRCYEQHLYECGLKPNTISTYMRMLRSIYNRGVEAGSAPYVHRLFHEVYTGVDVRQKRALPVVALRRLLYEDPQSDRLRRTQAIAALMFQFCGMSFADLSHLEKSALDSNVLRYNRVKTKTPMSVEVLDSAQEMLDQLRNRQSPRPGCPDYLFGILHGDKKRKDERAYREYQSALRRFNYCLKSLAKRLRLNFPVTSYTLRHSWATTAKYRGVPIEMISESLGHKSIKTTQIYLKGFELKERTEVNRMNLSYVKRCGVGQCI,not soluble
18,MNKRNWTAYYNSTKQNTLPRKSLLKAIANFDKEKINLSKSAIDLGCGAGIDVMELLRCGWSVIAIDSQLSAIDSLLSSAQELTCANKLKTIISSFEALDSLPKVNLINASFSLPFLKPVYFYKFWSVILKGLKPGGRFSGSFFGFNDFWNTRTDMTFLNREMICHLFSQFKIEYFQEEEKDEMDALGYYKHWHKFFIVAKKIALEHHHHHH,not soluble
19,MNLFFDTELGKQQNKATHKIRVMSEAWLEKNGYCPCCGSKPMQRFANNKPVADLFCPNCHEQYELKSKNQKTIGNSVPDGAYHTMLERIRSDTNPNFFFLAYKKADYSIRQLVLVPKHFITPDMIIPRNKGIKNRPNHIMCSINLAPLPESGKIFLIDNSRIIEPETVLKKWQSNLFLRNQNAERKGWLLAVMKCIDQLPEEFTLSQMYEFENKLSIQFPQNNHIRDKIRQQLQILRDQNTIEFIGRGLYKKS,not soluble
20,MNLFYNPKGVGDVAFIQIEPSVGPFEYEQKHGVVEIKKENEVVGYNIFNVSNNVTINDNGHIKLTTELIKDLQQLITEAGFDYQLDTDVSPKFVVGYVETKEKHPNADKLSVLNVNVGTEKLQIVCGAPNVESGQKVVVAKVGAVMPSGMVIKDAQLRGVDSSGMICSMKELNLPNAPKEKGIMVLNDDYDIGQAFFELEHHHHHH,soluble
21,MNLHEYQAKEILARYGVPVPPGKVAYTPEEAKRIAEEFGKRVVIKAQVHVGGRGKAGGVKLADTPQEAYEKAQAILGMNIKGLTVKKVLVAEAVDIAKEYYAGLILDRAKKRVVLMLSKEGGVDIEEVAAERPEAIHKFWIDPHKGFRPFEAREMVKRAGLEGNLNKLAQVLVALYRAYEGVDASIAEINPLVVTTDGGIVAADAKIVLDDNALFRHPDLAELREVEAEHPLEVEASNYGFAYVKLDGNIGIIGNGAGLVMYTLDLVNRVGGKPANFLDIGGGAKADVVYNALKVVLKDPDVKGVFINIFGGITRADEVAKGVIRALEEGLLTKPVVMRVAGTAEEEAKKLLEGKPVYMYPTSIEAAKVIVAMVGGAA,soluble
